Measured values taken from doi:10.1101/2024.07.01.601590.

Molecular target: Fluorescently labelled Asgard ESCRT-IIIB (Heimdallarchaeota archaeon AB_125), full length (Heimdallarchaeota archaeon AB_125)
Experiment: TIRF microscopy on supported lipid bilayers

Substance | time to reach plateau [s]
Fluorescently labelled Asgard ESCRT-IIIA (Heimdallarchaeota archaeon AB_125), full length (natural protein) | 160
Fluorescently labelled Asgard ESCRT-IIIB (Heimdallarchaeota archaeon AB_125), full length (natural protein) | > 1000
